These results are taken from publication PMC6070888.

This data set concerns the target T1, ZafA ZF3-6 (Aspergillus fumigatus) (UniProt Q4WT96).
T1 sequence: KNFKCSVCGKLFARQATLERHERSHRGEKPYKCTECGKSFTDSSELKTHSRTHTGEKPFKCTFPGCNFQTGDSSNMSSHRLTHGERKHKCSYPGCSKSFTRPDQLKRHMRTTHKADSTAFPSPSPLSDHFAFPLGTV
As to the kind of experiment: EMSA. (In general: A gel shift assay detects complexes by their altered migration in electrophoresis.)

Read-outs that look alike come from different tables or passages of the source.

For the sequence “ATGTCCGCACGGAGAGCCACAAACGAGCGGGGCCCCGTACGTGCTCTCCTACCCCAGGATCGCATCCCCGCATAGCTGAACATCTATATAAAGACCCCCAAGGTTCTCAGTCTCACCAACATCATCAACCAACAATCAACAGTTCTCTACTCAGTTAATTAGAACTCTTCCAATCCTATCACCTCGCCTCACCATGGCCATCTAGAGGTACCA (double strand) [PalcA wild type 213 bp EMSA fragment]”, for the setting “EMSA buffer 25 mM Tris-HCl pH 8, 50 mM KCl, 1 mM MgCl2, 12.5% glycerol, 1 mM DTT, 0.2 ug BSA, protein dialyzed in buffer with 10 uM ZnCl2, 30 C (EMSA 1 h …)”, the binding result is “binds”.
With “TGGTACCTCTAGATGGCCATGGTGAGGCGAGGTGATAGGATTGGAAGAGTTCTAATTAACTGAGTAGAGAACTGTTGATTGTTGGTTGATGATGTTGGTGAGACTGAGAACTGAGGGGGTCTTTATATAGATGTTCAGCTATGCGGGGATGCGATCCTGGGGTAGGAGAGCACGTACGGGGCCCCGCTCGTTTGTGGCTCTCCGTGCGGACAT (double strand) [PalcA mutant (CAAGGT to CTCAGT)]”, the binding result is listed as “no binding”.
